Assay results: patent publication US20140348865A1, “[…] ON AN HIV-1 V1V2 SITE-OF-VULNERABILITY” (The United States of America, as represented by the …, priority 2011, published 2014)

Experiments:
[1] = target: Env of HIV-1 strain 7165.18 (pseudovirus) (HIV-1)
[2] = target: Env of HIV-1 strain BG 1168 (pseudovirus) (HIV-1)
[3] = target: Env of HIV-1 strain CNE4 (pseudovirus) (HIV-1)
[4] = target: Env of HIV-1 strain JRFL (pseudovirus) (HIV-1)
[5] = target: Env of HIV-1 strain QH0515 (pseudovirus) (HIV-1)
[6] = target: Env of HIV-1 strain RHPA (pseudovirus) (HIV-1)
[7] = target: Env of HIV-1 strain T251-18 (pseudovirus) (HIV-1)
[8] = target: Env of HIV-1 strain 6405 (pseudovirus) (HIV-1)
[9] = target: Env of HIV-1 strain A03349M1 (pseudovirus) (HIV-1)

## monoclonal antibody PG9
89.6.DG (HIV-1)
  neutralization IC80: > 50 µg/mL
AC10.29 (HIV-1)
  neutralization IC80: 0.306 µg/mL
ADA.DG (HIV-1)
  neutralization IC80: > 50 µg/mL
BL01.DG (HIV-1)
  neutralization IC80: > 50 µg/mL
BR07.DG (HIV-1)
  neutralization IC80: > 50 µg/mL
BX08_16 (HIV-1)
  neutralization IC80: 0.273 µg/mL
BaL.26 (HIV-1)
  neutralization IC80: 0.365 µg/mL
Bal.01 (HIV-1)
  neutralization IC80: 1.52 µg/mL
CAAN.A2 (HIV-1)
  neutralization IC80: > 50 µg/mL
CH038.12 (HIV-1)
  neutralization IC80: > 50 µg/mL
CH070.1 (HIV-1)
  neutralization IC80: 0.024 µg/mL
CNE10 (HIV-1)
  neutralization IC80: 1.61 µg/mL
CNE12 (HIV-1)
  neutralization IC80: > 50 µg/mL
CNE14 (HIV-1)
  neutralization IC80: > 50 µg/mL
CNE57 (HIV-1)
  neutralization IC80: > 50 µg/mL
DJ263.8 (HIV-1)
  neutralization IC80: 0.733 µg/mL
[1]
  neutralization IC80: > 50 µg/mL
[2]
  neutralization IC80: > 50 µg/mL
[3]
  neutralization IC80: > 50 µg/mL
[4]
  neutralization IC80: > 50 µg/mL
[5]
  neutralization IC80: > 50 µg/mL
[6]
  neutralization IC80: > 50 µg/mL
[7]
  neutralization IC80: > 50 µg/mL
HO86.8 (HIV-1)
  neutralization IC80: 0.125 µg/mL
HT593.1 (HIV-1)
  neutralization IC80: 5.41 µg/mL
HXB2.DG (HIV-1)
  neutralization IC80: 10.2 µg/mL
JRCSF.JB (HIV-1)
  neutralization IC80: 0.009 µg/mL
MN.3 (HIV-1)
  neutralization IC80: > 50 µg/mL
PVO.04 (HIV-1)
  neutralization IC80: 37.1 µg/mL
QH0692.42 (HIV-1)
  neutralization IC80: > 50 µg/mL
REJO.67 (HIV-1)
  neutralization IC80: 0.08 µg/mL
SC422.8 (HIV-1)
  neutralization IC80: 38.6 µg/mL
SF162.LS (HIV-1)
  neutralization IC80: > 50 µg/mL
SS1196.01 (HIV-1)
  neutralization IC80: 3.08 µg/mL
T250-4 (HIV-1)
  neutralization IC80: 0.001 µg/mL
T253-11 (HIV-1)
  neutralization IC80: 1.72 µg/mL
T255-34 (HIV-1)
  neutralization IC80: 0.114 µg/mL
T257-31 (HIV-1)
  neutralization IC80: 0.075 µg/mL
T266-60 (HIV-1)
  neutralization IC80: > 50 µg/mL
T278-50 (HIV-1)
  neutralization IC80: 6.06 µg/mL
T280-5 (HIV-1)
  neutralization IC80: 1.94 µg/mL
T33-7 (HIV-1)
  neutralization IC80: 0.087 µg/mL
THRO.18 (HIV-1)
  neutralization IC80: > 50 µg/mL
TRJO.58 (HIV-1)
  neutralization IC80: 3.22 µg/mL
TRO.11 (HIV-1)
  neutralization IC80: > 50 µg/mL
WITO.33 (HIV-1)
  neutralization IC80: 0.03 µg/mL
YU2.DG (HIV-1)
  neutralization IC80: > 50 µg/mL
CAP210.E8 (HIV-1)
  neutralization IC80: 0.501 µg/mL
CH117.4 (HIV-1)
  neutralization IC80: 0.03 µg/mL
DU151.02 (HIV-1)
  neutralization IC80: 0.057 µg/mL
231965.c1 (HIV-1)
  neutralization IC80: > 50 µg/mL
3326_V4_C3 (HIV-1)
  neutralization IC80: 0.111 µg/mL
3337_V2_C6 (HIV-1)
  neutralization IC80: > 50 µg/mL
3817.v2.c59 (HIV-1)
  neutralization IC80: 0.028 µg/mL
57128.vrc15 (HIV-1)
  neutralization IC80: 0.665 µg/mL
[8]
  neutralization IC80: > 50 µg/mL
[9]
  neutralization IC80: > 50 µg/mL
NKU3006.ec1 (HIV-1)
  neutralization IC80: > 50 µg/mL
SIVmac251.30.SG3 (SIV)
  neutralization IC80: > 50 µg/mL
UG024.2 (HIV-1)
  neutralization IC80: > 50 µg/mL
ZM249.1 (HIV-1)
  neutralization IC80: 0.408 µg/mL
ZM53.12 (HIV-1)
  neutralization IC80: 0.17 µg/mL
ZM55.28a (HIV-1)
  neutralization IC80: 11.5 µg/mL
